According to paper PMC7956451 (International Journal of Molecular Sciences, 2021):

Biological target: T1, CMVpp65_(495-503)/HLA-A*02:01 single-chain trimer (SCT) protein (Homo sapiens HLA-A*02:01 (BC019236) and …, UniProt P06725;P61769;Q8WUX3, stabilised)
T1 construct: source: HEK293F, transfected, purified from culture supernatant (Ni-NTA)
Test: BLI; Abs (mouse IgG2a/κ) immobilised, soluble pMHC SCT as analyte; pH 7.4; Octet QKe; global fit, 1:1 Langmuir model
Conditions: both partners purified

B1: H9 TCR-like antibody in mouse IgG2a/κ format (antibody, V domains shown)
VH: EVQLVQSGAEVKKPGSSVKVSCKASGGTFSSYAISWVRQAPGQGLEWMGGIIPIFGTANYAQKFQGRVTITADESTSTAYMELSSLRSEDTAVYYCARGDLYYYDSSGYPRYYFDYWGQGTLVTVSS
VL: ETTLTQSPGTLSLSPGERATLSCRASQSVSSSYLAWYQQKPGQAPRLVIYGASSRATGIPDRFSGSGSGTDFTLTISRLEPEDFAVYYCQHYSTSPGFTFGQGTKLEIR
notes: also called parental H9; H9 Ab
- Kd: 0.348 ± 0.033 µM
- koff: 0.0022 s⁻¹
- kon: 6300 M⁻¹ s⁻¹
